By EC50 is commonly meant the concentration that produces a half-maximal response. A low value points to higher potency in that assay.

Data on one molecule can be found in US20210246218A1 (LYVGEN BIOPHARMA SUZHOU, published 2021).

The target of one assay is T1, Ly050.
T1 chain: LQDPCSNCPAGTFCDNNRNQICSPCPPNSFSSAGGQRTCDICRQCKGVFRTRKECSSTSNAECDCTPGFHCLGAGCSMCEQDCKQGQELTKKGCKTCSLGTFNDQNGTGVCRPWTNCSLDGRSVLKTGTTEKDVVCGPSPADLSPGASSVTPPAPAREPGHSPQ
Nature of the assay: ELISA, clone 3712-IgG1v coated, CD137 protein titrated (EC50 is a concentration of the CD137 protein); full sigmoid, plateau about 2.2. The procedure:
(§1) The plate was decanted and washed once; assay diluent was added 200 μL/well. After one-hour incubation at room temperature, the plate was washed with PBST one time. CD137 receptor human/mouse chimeras were diluted in assay diluent to 100 or 10 μg/mL, and then a 4-fold serial dilution in assay diluent for 11 points to final concentrations of 100000, 25000, 6250, 1562.5, 390.63, 97.66, 24.41, 6.10, 1.53, 0.38 and 0.095 ng/mL or 10000, 2500, 625, 156.25, 39.06, 9.77, 2.44, 0.61, 0.15, 0.038 and 0.0095 ng/mL. The diluted CD137 receptor was added to the assay plate, 50 μL/well, in duplicate. The plate was incubated one hour at room temperature and then washed three times with PBST. Goat anti-human IgG-H+L HRP conjugated at 1:100,000 20 dilution was added to the plate at 100 μL/well. The plate was then incubated one hour at room temperature followed by washing with PBST four times. The TMB substrate solution was added at 100 μL/well. The color was allowed to develop for 15 minutes, and was stopped with 100 μL/well 2N H2SO4. Absorbance at 450 nm and 620 nm was determined by a Tecan F200 Pro reader.

For the next assay, the target named is T2, Ly052.
T2 chain: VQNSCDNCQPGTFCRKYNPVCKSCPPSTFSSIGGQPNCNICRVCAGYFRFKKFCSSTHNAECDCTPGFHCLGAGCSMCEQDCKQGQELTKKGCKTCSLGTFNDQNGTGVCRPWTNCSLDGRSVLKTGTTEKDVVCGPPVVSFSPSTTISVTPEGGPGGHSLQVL
In words: ELISA, clone 3712-IgG1v coated, CD137 protein titrated (EC50 is a concentration of the CD137 protein); curve rises only above about 1000 ng/mL to about 0.61 at 100000 ng/mL, no plateau seen. The procedure: as §1
For orientation: ELISA stands for enzyme-linked immunosorbent assay.

Another assay deals with T3, human LTBR protein (human, UniProt P36941 31-227).
T3 construct: also called LT β R; LTβR
Nature of the assay: ELISA, protein coated at 1 µg/mL. The procedure: (§2) The plate was decanted and washed once; assay diluent was added at 200 μL/well. After a 1-hour incubation at room temperature, the plate was washed with PBST one time. […] These samples were added into the plate 50 μL/well. The plate was incubated 1 hour at room temperature and then washed three times with PBST. Goat anti-human IgG-H+L HRP-conjugated at 1:100,000 dilution or goat anti-mouse IgG (H+L) secondary antibody, HRP, at 1:50,000 dilution was added to the plate at 100 μL/well. The plate was incubated 1 hour at room temperature followed by washing with PBST four times. The TMB substrate solution was added 100 μL/well. The color was permitted to develop for 15 minutes and then 100 μL/well 2N H₂SO₄ was added to terminate the reaction. Absorbance at 450 nm and 620 nm was determined by a Tecan F200 Pro reader.

The target of a further assay is human CD40 protein (human, UniProt P25942 21-193). Nature of the assay: ELISA, protein coated at 1 µg/mL. Here is the method: as §2
The target of a further assay is human CD47 protein (human, UniProt Q08722 19-139). In words: ELISA, protein coated at 1 µg/mL. The procedure:
as §2

Another assay addresses T4, rat CD137 protein (rat, UniProt Q4W8J3 24-189).
T4 construct: Coated on ELISA plates; also called Rodent CD137
T4 sequence: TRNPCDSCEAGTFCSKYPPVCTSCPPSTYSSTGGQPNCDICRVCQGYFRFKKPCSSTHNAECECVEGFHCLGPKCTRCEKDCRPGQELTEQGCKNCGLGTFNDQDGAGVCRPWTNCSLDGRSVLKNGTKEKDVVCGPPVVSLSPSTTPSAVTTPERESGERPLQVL
In words: ELISA, protein coated at 1 µg/mL. The procedure:
as §2

For another assay, the target named is T5, human LAG-3 protein (human, UniProt P18627 23-450).
T5 sequence (looked up): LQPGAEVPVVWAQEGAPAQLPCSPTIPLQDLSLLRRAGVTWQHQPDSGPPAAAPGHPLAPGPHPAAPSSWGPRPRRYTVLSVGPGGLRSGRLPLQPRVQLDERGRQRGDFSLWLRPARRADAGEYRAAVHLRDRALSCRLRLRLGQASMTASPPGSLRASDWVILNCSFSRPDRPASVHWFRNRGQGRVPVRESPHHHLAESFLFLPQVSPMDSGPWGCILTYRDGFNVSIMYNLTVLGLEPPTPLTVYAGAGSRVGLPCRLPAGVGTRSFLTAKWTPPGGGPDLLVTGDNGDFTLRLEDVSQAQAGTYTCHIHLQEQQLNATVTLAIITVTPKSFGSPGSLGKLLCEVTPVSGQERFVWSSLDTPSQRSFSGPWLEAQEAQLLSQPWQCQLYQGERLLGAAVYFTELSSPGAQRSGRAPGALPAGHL
In words: ELISA, protein coated at 1 µg/mL. The procedure:
as §2

The next assay concerns the target T6, human GITR protein (human, UniProt Q9Y5U5 26-161).
T6 sequence (looked up): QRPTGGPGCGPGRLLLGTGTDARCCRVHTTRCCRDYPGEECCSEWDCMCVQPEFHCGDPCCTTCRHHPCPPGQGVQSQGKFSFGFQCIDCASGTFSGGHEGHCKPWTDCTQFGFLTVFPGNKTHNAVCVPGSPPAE
In words: ELISA, protein coated at 1 µg/mL. Here is the method:
as §2

For a further assay, the target named is human CD27 protein (human, UniProt P26842 21-192, limits assumed). Nature of the assay: ELISA, protein coated at 1 µg/mL. The procedure:
as §2

T3 sequence (P36941 31-227 limits assumed): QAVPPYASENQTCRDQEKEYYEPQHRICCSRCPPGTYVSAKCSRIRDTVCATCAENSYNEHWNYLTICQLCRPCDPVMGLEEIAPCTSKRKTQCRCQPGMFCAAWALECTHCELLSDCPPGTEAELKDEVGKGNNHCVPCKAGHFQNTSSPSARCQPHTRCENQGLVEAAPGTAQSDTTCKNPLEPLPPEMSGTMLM
Sequence of human CD40 protein (P25942 21-193 limits assumed): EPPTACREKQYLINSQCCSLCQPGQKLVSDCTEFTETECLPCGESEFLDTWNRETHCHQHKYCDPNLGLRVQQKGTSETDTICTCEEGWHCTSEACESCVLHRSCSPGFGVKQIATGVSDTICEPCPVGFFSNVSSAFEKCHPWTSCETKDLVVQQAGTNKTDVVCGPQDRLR
Sequence of human CD27 protein (P26842 21-192 limits assumed): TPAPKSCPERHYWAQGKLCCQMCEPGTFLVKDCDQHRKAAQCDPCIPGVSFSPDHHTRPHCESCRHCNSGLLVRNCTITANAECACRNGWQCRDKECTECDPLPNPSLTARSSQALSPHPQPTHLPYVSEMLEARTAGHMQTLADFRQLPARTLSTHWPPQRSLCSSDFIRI
Sequence of human CD47 protein (Q08722 19-139 limits assumed): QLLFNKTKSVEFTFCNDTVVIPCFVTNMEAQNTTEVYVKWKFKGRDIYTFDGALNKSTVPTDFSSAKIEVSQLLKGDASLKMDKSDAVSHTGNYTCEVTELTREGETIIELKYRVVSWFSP

B1: Clone 3712-IgG1v (IgG1v/kappa) (antibody)
heavy: QVQLVQSGAEVKKPGASVKVSCKASGYTFAGFEMHWVRQAPGQGLEWMGAIDPKTGGTDYNQKFKDRVTMTRDTSISTAYMELSRLRSDDTAVYYCARDLGYFDVWGQGTLVTVSSASTKGPSVFPLAPSSKSTSGGTAALGCLVKDYFPEPVTVSWNSGALTSGVHTFPAVLQSSGLYSLSSVVTVPSSSLGTQTYICNVNHKPSNTKVDKKVEPKSCDKTHTCPPCPAPELLGPSVFLFPPKPKDTLMISRTPEVTCVVVDVEHEDPEVKFNWYVDGVEVHNAKTKPREEQYNSTYRVVSVLTVLHQDWLNGKEYKCKVSNKALPAPIEKTISKAKGQPREPQVYTLPPSREEMTKNQVSLTCLVKGFYPSDIAVEWESNGQPENNYKTTPPVLDSDGSFFLYSKLTVDKSRWQQGNVFSCSVMHEALHNHYTQKSLSLSPGK
light: DIQMTQSPSSLSASVGDRVTITCRASQDIRSNLNWYQQKPGGAVKLLIYYTSRLHSGVPSRFSGSGSGTDYTLTISSLQPEDFATYFCQQSEKLPRTFGGGTKVEIRRTVAAPSVFIFPPSDEQLKSGTASVVCLLNNFYPREAKVQWKVDNALQSGNSQESVTEQDSKDSTYSLSSTLTLSKADYEKHKVYACEVTHQGLSSPVTKSFNRGEC
notes: copies: 2 + 2
In the case of B1, the values for the EC50 in the assay with Ly050 and in the assay with Ly052 were 0.00339 µg/mL and 29.5 µg/mL, respectively. In addition, the binding result was “no binding (tested: 10 µg/mL and 1 µg/mL)” with human LTBR protein; “no binding (tested: 10 µg/mL and 1 µg/mL)” in the assay with human CD40 protein; “no binding (tested: 10 µg/mL and 1 µg/mL)” with human CD47 protein; “no binding (tested: 10 µg/mL and 1 µg/mL)” in the assay with rat CD137 protein; “no binding (tested: 10 µg/mL and 1 µg/mL)” in the assay with human LAG-3 protein; “no binding (tested: 10 µg/mL and 1 µg/mL)” with human GITR protein. In the assay with human CD27 protein, the binding result is “no binding (tested: 10 µg/mL and 1 µg/mL)”.
